{"source": "patent US20160303255", "about": "“COMPOSITIONS AND METHODS FOR TREATMENT OF MUSCULAR DYSTROPHY” (CONSIGLIO NAZIONALE DELLE RICHERCHE, published 2016)", "binders": {"B1": {"name": "Jazz/JZif1 target in human utrophin promoter A (dsDNA)", "DNA 1": "GCTGCTGCG", "DNA 2": "CGCAGCAGC"}}, "target": "JZif1 (artificial (human Zif268/EGR1 derived), UniProt P18146 SEQ:1-543)", "sequence (P18146 other isoform, or with tags, fused parts or gaps)": "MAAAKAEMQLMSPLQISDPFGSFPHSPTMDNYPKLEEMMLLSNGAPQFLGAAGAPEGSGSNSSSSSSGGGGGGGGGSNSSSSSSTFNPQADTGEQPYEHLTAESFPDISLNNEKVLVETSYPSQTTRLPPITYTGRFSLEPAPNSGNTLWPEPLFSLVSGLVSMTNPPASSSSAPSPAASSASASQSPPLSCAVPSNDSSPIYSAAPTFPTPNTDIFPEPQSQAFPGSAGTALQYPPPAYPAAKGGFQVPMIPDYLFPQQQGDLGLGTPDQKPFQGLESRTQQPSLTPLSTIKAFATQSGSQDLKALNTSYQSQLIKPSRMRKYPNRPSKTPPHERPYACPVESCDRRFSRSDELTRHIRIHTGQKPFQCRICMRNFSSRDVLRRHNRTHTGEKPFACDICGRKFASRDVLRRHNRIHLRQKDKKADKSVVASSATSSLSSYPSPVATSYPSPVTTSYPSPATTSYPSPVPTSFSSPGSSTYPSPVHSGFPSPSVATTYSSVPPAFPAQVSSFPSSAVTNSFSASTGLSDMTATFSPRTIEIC", "assay": "cell_activity; luciferase induction in HeLa, pXP-Luc (about 318 bp human utrophin promoter A); also active in C2C7 (FIG. 8)", "conditions": "tags: none", "description": "To investigate the ability of JZif1, JZif2, Vp16-CJ7-UtroUp, Vp16-Bagly and Vp16-Jazz to upregulate (i.e., increase) expression from the utrophin promoter “A”, their ability to drive expression of a luciferase reporter gene placed downstream of a utrophin promoter “A” fragment was tested.\nTo test the ability of these artificial transcription factors to increase expression from the utrophin promoter “A” in human cells, HeLa cells were co-transfected with a plasmid carrying JZif1, JZif2, Vp16-CJ7-UtroUp, Vp16-Bagly or Vp16-Jazz under control of the cytomegalovirus (CMV) promoter together with the luciferase reporter construct plasmid pXP-Luc (pXP). JZif1, JZif2, Vp16-CJ7-UtroUp, Vp16-Bagly and Vp16-Jazz were each able to increase luciferase expression relative to controls (FIG. 7). […] By comparison, no increase in luciferase expression was detected when the pXP plasmid was co-transfected with a plasmid carrying the zinc finger domain of Jazz without a transcriptional activation domain, with a plasmid carrying the genomically-encoded human transcription factor Zif268's transcription activation domain without its zinc finger motifs, or with a plasmid carrying the transcriptional activation domain of Vp16 without a zinc finger DNA binding domain, which served as controls (FIG. 7). […]", "data": [{"binder": "B1", "values": [{"measurement": "activity", "result": "> 20", "unit": "fold"}]}]}
